This is an account of results in the domain aggregation screens of Martell et al. (2025).

The nature of the data set: soluble fraction after stress (log2 fold change); higher = more stays soluble; pooled small domains, quantitative proteomics. The following applies: stress: 75 degC.
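Further: 20 min heating vs room temperature control held 20 min.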

“HMAPSLQISLKQAIITAQQQHPGSKALNADFDGARGTPRYVIETLLPTGELRELTIDAQSGQVMEDHPDR”: the “soluble fraction (log2)” value is 0.234.

As for “HMAPSPEGAAILRESVESVARDQVDRVALTMTARGYTTAEIAAALMVDRSTISRRLYAMRDRYHAQQDNAQ”, the “soluble fraction (log2)” value is -0.526.

Turning to “HMAPSVNEVAWAQKIIDAHAEAAAAGKGLVVVDGKLIENLHVEEAKQLLSLSDAIAKNDASNG”, the “soluble fraction (log2)” value was determined as 0.0645. “HMAPTGTDRQTPHTRDELYLVLSGTGTFVNGDARHPFGPGDALFVPAGAEHRFEDFSDDFRTWVVFYGAEG”: the “soluble fraction (log2)” value is -0.163.

Take “HMAPVVAILTRQLPLPQAQQLAGQTALVRVVKGGPGNEAELEFAGQNIQVKLPPGRQLTAGEMVTVAFALS”: the “soluble fraction (log2)” value was -0.762. As for “HMAQASEPMLALIRLKWWEEQINSPVKGDSLPLLSQLNSHISAGYLSRSQVTSLIQRWQDYA”, the figure is -0.983; as for “HMAQFNELLFELRQDRKMTQEDLAKVLFVTSGTISNYENGVHLPDIEKLISLADFFGVTTDYLLG”, -0.189. “HMAQLKYEQIKSYLQAEAVKPESATRMPTVRELMRRFNVSLVTVNRALSELEHAKVIVRRQGAGIVAAQ”: the “soluble fraction (log2)” value was -0.662. Turning to “HMAQLPADMSRVKSADVSDAQLREFVQKAQASGQTETQLFREFSRRGMPTNEINILRSRMVGLQNN”, the “soluble fraction (log2)” value was 0.152. As for “HMAQLPPTATARATSDVSGLTASAALRTLLEQGFVPQIHGSGKVSRQHPPAGTLLEPGSTIQLFLEPS”, the figure is 0.261.

As to “HMAQLSDMLTYLRKRKGLSQQELANTLKISRSAIGMYETGKREPDLETLEVFADFYNVDMNTLTGKA”, the “soluble fraction (log2)” value is -0.245. “HMAQNILPGQKNAIKSLATSAGFSQQELDSYLSQNYGKTLNNLSQKEGASLISGLQDGSIKKP”: the “soluble fraction (log2)” value was found to be 0.988. On to “HMAQPIPSGSDIREAREAAGMNLRDFARMVGGGAIGTWSHYETGKPIRVKSISPEVWQRVRDFILQHGK”, for which the “soluble fraction (log2)” value was -0.676. As for “HMAQRAADEARTHEILGLLRQARAALDHGGTARAARLRASIAEKLPAAPALPAWFARQLEQVDSQLAELQD”, the “soluble fraction (log2)” value was -0.768. As to “HMAQRFDLGDKLNPQSSEFEYLGTSSRTGVSTYRYKNVPTQLFFGRQIGDIVVGVRRGMITLTIYNL”, the “soluble fraction (log2)” value turned out to be 0.0868.

For “HMAQSTALVNLAQAEINKRGLTQTEVQARLSEEGINVNSISPAEYPKYQKQILSILDQMQKEKQLSKEV”, the “soluble fraction (log2)” value came out at 0.287. Take “HMAQVDAVQQVLQAFPALRSGQSQHLSQVVAALRQRGILTVGTKTTAWFAQWASVFQLLPLQVPNRIRYQS”: the “soluble fraction (log2)” value turned out to be 0.0672. “HMARGRETILLVEDEPAVRGLVHATLRLHGYTVLEARHGIEALLTSTKFVGPIHLLLTDVVMPQMS”: the “soluble fraction (log2)” value was 0.0984. As for “HMARHIHFEVHVQQAGRWSIHAQFGAGQREKAIEEAKKIEKTPGFDSVKVVKETYDSDLGNHQDTTIYRGP”, the “soluble fraction (log2)” value is -1.18. On to “HMARKTIFHSLLGELEQRIGRLPAGTILPAEQALADEYGVSKPTLRRALAELAEHGLITKENGIGSVVI”, for which the “soluble fraction (log2)” value was -0.577. “HMARLAGVDLPREKRIEIGLTYIYGIGLARSQEILKKAGINPDIRVKDLTDEQEQAIRNAMDGYIVEGDL”: the “soluble fraction (log2)” value is -1. With “HMARLQEVVVRVPVEDGQTLAAIYREAEVIERADEGTGVLLTVRIPAPLLGRLRRLEGVHVQP”, the “soluble fraction (log2)” value is -1.07. Regarding “HMARRLELEDIPVDEVLFTASRNLVDAIEVMDPSRQAPMIQPWLKQALEWAVGALGFSKEDAVATLTSD”, the “soluble fraction (log2)” value amounted to 0.157.

For “HMASAAHYEGVKTEGESDNDVITRVLTATGVTAEKDDIFVVKSLIADGKYSYTAYVYDGSVWAAMD”, the “soluble fraction (log2)” value was -0.236. As for “HMASALDVALNDFAEMRKKMRKPLTDRALALTLSELEKLAPGNDEKKIAILNQSIQRGWQGVFPLK”, the figure is -0.336; as for “HMASDEVPGAGFKWREDVLLRVMEANGIDKSNRDDFVRHAVNFDDDDNNYLKKAEIEAAAAAWVESQSPA”, -0.696; as for “HMASDLPTVTIMGKTFYTYVAKKGESFFGIANRFGWDPELLVKTNRELETPLDKGALIYYPVPKKPK”, -1.32.
